This series has as its target ZNF306 (UniProt Q9BRR0 Q9BRR0:1-538). Briefly: cell_activity; luciferase induction, duplicate tandem copies upstream of minimal tk promoter. The note with it: tags: expression plasmid or cDNA in colon cancer cells.

This passage reports activity results from patent publication US20070298445, “Cancer Therapeutic” (published 2007).

Sequence of ZNF306 (Q9BRR0 whole entry, one chain of several): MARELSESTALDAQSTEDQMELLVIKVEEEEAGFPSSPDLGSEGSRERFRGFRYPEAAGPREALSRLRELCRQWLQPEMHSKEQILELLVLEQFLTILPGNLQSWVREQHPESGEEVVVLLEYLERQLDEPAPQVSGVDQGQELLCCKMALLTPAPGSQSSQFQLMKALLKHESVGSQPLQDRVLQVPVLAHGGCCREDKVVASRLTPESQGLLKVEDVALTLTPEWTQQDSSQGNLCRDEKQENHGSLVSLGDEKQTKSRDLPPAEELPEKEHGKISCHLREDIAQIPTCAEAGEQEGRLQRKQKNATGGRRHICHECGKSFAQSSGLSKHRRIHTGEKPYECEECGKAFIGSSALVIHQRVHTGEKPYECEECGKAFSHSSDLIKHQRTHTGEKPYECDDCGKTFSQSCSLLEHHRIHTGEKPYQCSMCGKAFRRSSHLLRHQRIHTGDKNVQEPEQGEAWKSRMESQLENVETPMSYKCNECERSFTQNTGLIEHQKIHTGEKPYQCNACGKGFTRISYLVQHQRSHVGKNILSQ

B1: integrin beta4 intron 1 wt probe (dsDNA)
DNA 1: TGAGGGG
DNA 2: CCCCTCA
B1 registered an activity of 6 fold.
